“Also recorded” adds a separate entry of the source.
What was measured:
mouse NRP2 [1] = test: Epitope mapping: FACS staining of Expi293 cells expressing mouse NRP2 and b1 domain mutants; type: binding; conditions: MFI staining, antibody 10 nM, mutations made in isolation
Protocol: (§1) Human NRP2a (version 2; see Table N1) and mouse NRP2v2 cDNAs were obtained from Origene. […] Human and mouse NRP2, expression vectors, along with expression vectors encoding all 6 mutants were transfected into Expi293 cells at 1 million cells/mL, by standard techniques. Approximately 40 hours post transfection cells were co-stained with aNRP2-10v10, and a species agnostic anti-NRP2 a1 specific binding antibody.

mouse NRP2 [2] = biological target: T1, mouse NRP2 (Mus musculus, UniProt O35375); test: as above; type: binding
T1 construct: host or cells: Expi293, transient transfection
T1 sequence (O35375 21-926 isoform O35375-4): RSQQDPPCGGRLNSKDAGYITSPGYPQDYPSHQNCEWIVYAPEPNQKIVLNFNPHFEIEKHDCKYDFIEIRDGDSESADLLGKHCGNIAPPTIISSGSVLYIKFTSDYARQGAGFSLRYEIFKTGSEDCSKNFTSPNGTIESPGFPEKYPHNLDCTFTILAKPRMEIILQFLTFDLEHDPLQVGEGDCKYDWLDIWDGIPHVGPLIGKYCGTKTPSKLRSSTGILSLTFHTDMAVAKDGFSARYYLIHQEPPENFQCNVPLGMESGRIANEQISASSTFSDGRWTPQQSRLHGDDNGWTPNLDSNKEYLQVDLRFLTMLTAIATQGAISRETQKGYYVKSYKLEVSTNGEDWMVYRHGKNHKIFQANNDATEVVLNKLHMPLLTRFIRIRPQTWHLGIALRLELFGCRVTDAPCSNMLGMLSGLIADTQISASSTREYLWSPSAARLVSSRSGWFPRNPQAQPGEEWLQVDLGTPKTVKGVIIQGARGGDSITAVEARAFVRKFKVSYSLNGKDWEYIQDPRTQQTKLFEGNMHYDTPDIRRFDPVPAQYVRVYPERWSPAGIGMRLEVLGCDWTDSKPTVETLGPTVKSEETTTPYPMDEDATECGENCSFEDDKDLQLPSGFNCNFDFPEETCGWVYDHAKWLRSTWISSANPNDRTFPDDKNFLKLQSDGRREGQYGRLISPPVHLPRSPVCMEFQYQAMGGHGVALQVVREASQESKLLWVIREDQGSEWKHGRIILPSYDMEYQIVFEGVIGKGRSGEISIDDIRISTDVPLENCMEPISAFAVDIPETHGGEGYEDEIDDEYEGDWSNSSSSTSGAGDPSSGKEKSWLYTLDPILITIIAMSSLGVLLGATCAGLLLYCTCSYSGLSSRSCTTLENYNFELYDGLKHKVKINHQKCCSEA
Protocol: as §1

[3] = system: neo-lymphangiogenesis of the cornea; test: Corneal alkali-burn injury model of neovascularization (LYVE-1 staining); type: in vivo, mouse; conditions: IP on Day 0, 3, 7 and 10; Day 14; compared to IgG control; p=0.07
Protocol: Study Design & Treatment Regimen. The study consisted of 40 female C57BL/6 mice separated into four groups. Prior to study, animals were randomized into four groups, 10 mice per group. On Day 0, neovascularization (NV) of the cornea was induced from alkali-burn injury in the eyes of animals under anesthesia. Animals were treated intraperitoneally with control IgG (Group 1), aNRP2-28 (Group 2) and Bevacizumab (Group 3) on post-injury Day 0, 3, 7 and 10. During the in-life phase, animals were monitored with daily clinical observations and weekly body weights. Additionally, ocular assessments of injured eyes were scored and photos taken on post-injury Day 7 and Day 14. All animals were euthanized on Day 14. Injured eyes from all animals were removed and dissected. Whole-mounted corneas were fixed, stained with LYVE-1, and analyzed immunohistochemically to examine the efficacy of Test Articles.

B1: aNRP2-10v10: humanized, affinity matured anti-NRP2 antibody, target domain b1, VEGF-C blocking; VH SEQ ID NO: 49, VL SEQ ID NO: 50 (antibody, V domains shown)
VH: EVQLVQSGAEVKKPGATVKISCKVSGFNIKDYYVHWVQQAPGKGLEWMGRIDVEDDETKYAPKFQGRVTITADTSTDTAYMELSSLRSEDTAVYYCATPIYGAREAWFAYWGQGTLVTVSS
VL: DIQMTQSPSSLSASVGDRVTITCTASSSVSSSYLHWYQQKPGKAPKLLIYRTSNLASGVPSRFSGSGSGTDFTLTISSLQPEDFATYYCHQYYRSPPTFGGGTKVEIK
modifications: Variable heavy chain region; Light chain variable region
Mouse NRP2 [1]
  binding activity to mouse NRP2 with mutations F299Y, K354N, and L416S: restored partial, but incomplete, binding activity
  binding to mouse NRP2 with mutations 1383V, M400A, and 1407V: no improvement in binding
Mouse NRP2 [2]
  binding to mouse NRP2 (wild type): binds specifically to the b1 domain of human NRP2, but not mouse NRP2; also recorded: does not cross react with mouse NRP2
[3]
  neo-lymphangiogenesis, % Lyve-1+ area of cornea: clear trend towards reduced sprouting of lymphatic vessels

From patent US12410253B2, “Compositions comprising anti-NRP2 antibodies” (aTyr Pharma, Inc., priority 2019, dated 2025)
